Test [1] concerns BALB/cJ tail skin graft on VG mice humanized for IL2RG. As to the kind of experiment: In vivo skin graft rejection model, REGN7257 with MMF (Example 4). The arrangement: species or system mouse. Conditions: REGN7257 25 mg/kg s.c. 2 times per week from 2 days prior to transplant; MMF 100 mg/kg i.p. daily from day of transplant; until rejection; FIG. 9. The text has this: (§1) BALB/cJ mice obtained from The Jackson Laboratory (Bar Harbor, ME) were used as skin graft donors, and MHC mismatched Velocigene® (VG) background mice (C57BL/6NTac (75%)/129S6SvEvTac (25%)) from the Regeneron Velocigene® breeding colony that were genetically modified to replace the endogenous IL2RG ectodomain with the corresponding human sequences were used as recipients. The skin graft was obtained from the tail of the donor mice. The skin was the peeled off using forceps and punched with a 10 mm diameter biopsy punch.
REGN7257 was administered subcutaneously at doses of 25 mg/kg at a frequency of 2 times per week starting 2 days prior to transplant, and continuing until rejection. MMF was administered intraperitoneally daily at a dose 100 mg/kg starting on the day of transplant, and continuing until rejection. Recipients with the surgical site shaved were anesthetized by isoflurane via a nose cone and administered an analgesic (buprenorphine-sustained release) (ZooPharm). The shaved dorsal area was swabbed with applications of povidone-iodine and alcohol. The graft bed was created midway laterally between the dorsal and ventral sides of the mouse by pinching skin with forceps followed by skin excision utilizing a sterile 10 mm diameter biopsy skin punch. […]

Test [2] shares this test system. Put plainly: In vivo skin graft rejection model, REGN7257 induction with abatacept maintenance (Example 2). The arrangement: species or system mouse. The settings on record: induction: 2 doses 25 mg/kg s.c. (2 days prior and day of transplant); maintenance: 25 mg/kg s.c. 2 times per week from day of transplant until rejection; FIG. 5.
Protocol: (2) “Scabbing” and contraction of the graft at later times was used as indicators of graft rejection. The complete rejection timepoint is recorded as the first day where 100% of the graft tissue was necrotic. Significance was determined by Log-rank (Mantel-Cox) test with Bonferroni correction (α=0.005, k=10).
Test [3] relates to donor-specific antibodies (total IgG binding to CT26.WT cells). Put plainly: Detection of donor specific antibodies by flow cytometry (Example 1). The settings on record: blood sampled day 56 post-transplant; MFI at 1/512 serum dilution; FIG. 3. The format is in vivo, mouse. How it is done: Detection of donor specific antibodies by flow cytometry: Blood was sampled at the day 56 post-transplant timepoint to assess formation of donor-specific antibodies. CT26.WT (ATCC® CRL-2638™) cells were cultured in tissue culture flasks to 80% confluent. Cells were washed with 1×DPBS and dissociated with TrypLE Express reagent (Gibco) by incubating at room temperature for 5 minutes and washing flask with complete RPMI 1640 media. Cells were then centrifuged (500 g, 10 minutes), and resuspended at 5 million cells/ml with 1×DPBS with 1:50 dilution of 4 μg/mL of Fc block (Tonbo) for 15 minutes at room temperature. The suspension was plated at 250,000 cells/well (50 μL) in a 384 well V-bottom plate.
50 μL of serially diluted sample serum from transplanted mice and from non-engrafted wild type VG mouse (C57BL/6NTac (75%)/129S6SvEvTac (25%)) and wild type BALB/cJ mouse obtained from The Jackson Laboratory was added to its respective well and incubated at 37° C. for 45 minutes. Following 2 washes with MACS buffer (500 g, 4 minutes), the cells were resuspended in 50 μL of LIVE/DEAD™ Fixable Blue Dead Cell Stain Kit (Invitrogen) diluted 1:500 in 1×DPBS at 50 μL total volume per well and incubated at room temperature for 15 minutes. […] Acquired events were analyzed with FlowJo (BD). […]

Test [4] has as its system BALB/cJ tail skin graft on VG mice humanized for IL2RG. Put plainly: In vivo skin graft rejection model, REGN7257 monotherapy (Example 1). The settings on record: 25 mg/kg s.c. 2 times per week starting 3 weeks prior to transplant until rejection. The arrangement: species or system mouse.
Excerpt: as §1
As detailed in Table 2 below, VG mice (humanized for IL2RG), used as graft recipients, were administered no treatment (negative control), an isotype control (REGN1945), or REGN7257 subcutaneously at doses 25 mg/kg at a frequency of 2 times per week starting 3 weeks prior to transplant, and continuing until rejection (FIG. 1). […]
These grafts will display scabbing and contraction several […] from bandage removal. […] The complete rejection timepoint is recorded as the first day where 100% of the graft tissue was necrotic. Rejection onset was recorded as the first day where there were signs of rejection (i.e., redness). Significance was determined by Log-rank (Mantel-Cox) test with Bonferroni correction (adjusted p value 0.00555, K=9).

This is an account of results in patent US20260273048A1, “METHODS OF IMPROVING TRANSPLANT SURVIVAL USING IL-2 RECEPTOR GAMMA CHAIN ANTIBODIES” (Regeneron Pharmaceuticals, Inc., priority 2023, published 2026).

Take `COc1c(C)c2c(c(O)c1C/C=C(\C)CCC(=O)OCCN1CCOCC1)C(=O)OC2` [MMF, mycophenolate mofetil, reference compound]: the “Median Survival Time [MST] of skin graft” value in test [1] amounted to 10.

B1: REGN7257: fully human IL-2Rγ antibody comprising the HCVR of SEQ ID NO: 1 and the LCVR of SEQ ID NO:5 (antibody, V domains shown)
VH: EVQLVESGGGLVQPGGSLRLSCAASGFIFSSYEMHWVRQAPGKGLEWISYISSSGTTIYYADSVKGRFTISRDNAKNSLYLHMNSLRAEDTAVYYCTRARITGTFDVFDIWGQGTMVTVSS
VL: DIQMTQSPSSLSASVGDRVTITCRASQSISSYLNWYQQKPGKAPKLLIFAASNLQSGVPSRFSGSRSGTDFTLTISSLQPEDFATYYCQQNYNIPYTFGQGTKLEIK
B1: the “skin graft median survival time [MST] (time to complete skin graft rejection)” value in test [2] turned out to be 11 days. The “Median Survival Time [MST] of skin graft” value in test [1] worked out at 12. Also, the “generation of donor-specific antibodies” value in test [3] was “prevented”. Further, the “overall skin graft survival (time to complete rejection)” value in test [4] (FIG. 2B) was “improved”. For the same molecule, the “onset of skin graft rejection” value in test [4] (vs no mAb and isotype control, FIG. 2A) is reported as “delayed”.
